For orientation: Kd means the concentration at which binding is half-saturated.

The source of these data is patent publication US20230272117A1 (published 2023).

Assay in all cases: FACS cell binding
The target of test [1] is human ATP Binding Cassette Subfamily C Member 1 (ABCC1) (UniProt P33527 1-1531).
The target in test [2] is cynomolgus monkey ABCC1 (UniProt Q864R9 1-1531).
Test [3] deals with C1.831.hu31.
For test [4], the target named is C1.861.hu31.
Test [5] deals with C1.861.hu51.
For test [6], the target named is C1.844.hu31.
The target of test [7] is C1.844.hu41.

B1: C1.851.hu14 (antibody, V domains shown)
VH: EVQLQESGPGLVKPSETLSLTCTVSGFSLTNNGVSWIRQPPGKGLEWIAAISSGGNIYYNSAFKSRLTISRDTSKNQVSLKLSSVTAADTAVYYCARHRGYYGYNWGYFDYWGQGTLVTVSS
VL: DVVMTQTPLSLPVSLGDQASISCRSSQSIVHSNGNTYLEWYLQKPGQSPKLLIYKVSNRFSGVPDRFSGSGTGTDFTLKISRVEAEDLGVYYCFQGSHVPRTFGGGTKLEIK
As for B1, the dissociation constant Kd in test [1] is 0.148 µM; in test [2], 2.03 µM.

B2: C1.851.hu12 (antibody, V domains shown)
VH: B1 VH
VL: DIQLTQSPSSLSASVGDRVTITCKGSQNINNYLAWYQQKPGKAPKLLIYKTNSLQTGIPSRFSGSGSGTDYTLTISSLQPEDFATYYCYQYNNGYTFGQGTKLEIK
Regarding B2, the Kd in test [1] was found to be 0.153 µM; in test [2] it was 0.181 µM.

B3: C6.cC1 (other)
chain: MALRGFCSADGSDPLWDWNVTWYTSNPDFTKCFQNTVLVWVPCFYLWACFPFYFLYLSRHDRGYIQMTLLNKTKTALGFLLWIVCWADLFYSFWERSRGIFLAPVFLVSPTLLGITMLLATFLIQLERRKGVQSSGIMLTFWLVALLCALAILRSKIMTALKEDVQVDLFRDMTFYVYFSLVLIQLVLSCFSDRSPLFSETIHDPNPCPESSASFLSRITFWWITGLIVRGYRQPLEGSDLWSLNKEDTSEQVVPVLVKNWKKECAKTRKQPVKVVYSSKDPAQPKDSSKVDANEEVEALIVKSPQKEWNPSLFKVLYKTFGPYFLMSFFFKAIHDLMMFSGPEILKLLINFVNDTKAPDWQGYFYTALLFVAACLQTLVLHQYFHICFVSGMRIKTAVIGAVYRKALVITNAARKSSTVGEIVNLMSVDAQRFMDLATYINMIWSAPLQVILALYLLWRNLGPPILAGVAVMVLMVPVNAVMAMKTKTYQVAHMKSKDNRIKLMNEILNGIKVLKLYAWELAFKDKVLAIRQEELKVLKKSAYLAAVGTFTWVCTPFLVALCTFAVYVTIDKNNVLDAQKAFVSLALFNILRFPLNILPMVISSIVQASVSLKRLRIFLSHEELEPDSIERRPVKDGGDTNSITVRNATFTWARSDPPTLNGITFSIPEGALVAVVGQVGCGKSSLLSALLAEMDKVEGHVALKGSVAYVPQQAWIQNDSLQENILFGCQLEEPYYRSVIQACALLPDLEILPSGDRTEIGEKGVNLSGGQKQRVSLARAVYCNADIYLFDDPLSAVDAHVGKHIFENVIGPKGMLKNKTRILVTHSMSYLPQVDVIIVMSGGKISEMGSYQELLARDGAFAEFLRTYASAEQEQDPEDNGVTGVSGPGKEAKQMENGMLVTDSAGKQLQRQLSSSSSYSGDVSRQHNSTAELQKDGAKKEETWKLMEADKAQTGQVKLSVYWDYMKAIGLFISFLSIFLFICNHVAALASNYWLSLWTDDPIVNGTQEHTKVRLSVYGALGISQGIAVFGYSMAVSIGGILASRCLHVDLLHSILRSPMSFFERTPSGNLVNRFSKELDTVDSMIPEVIKMFMGSLFNVIGACIVILLATPIAAIIIPPLGLIYFFVQRFYVASSRQLKRLESVSRSPVYSHFNETLLGVSVIRAFEEQERFIHQSDLKVDENQKAYYPSIVANRWLAVRLECVGNCIVLFAALFAVISRHSLSAGLVGLSVSYSLQVTTYLNWLVRMSSEMETNIVAVERLKEYSETEKEAPWQIQETAPPSNWPQVGRVEFRNYCLRYREDLDFVLRHINVTINGGEKVGIVGRTGAGKSSLTLGLFRINESAEGEIIIDGINIARIGLHDLRFKITIIPQDPVLFSGSLRMNLDPFSQYSDEEVWTSLELAHLKGFVSALPDKLDHECAEGGENLSVGQRQLVCLARALLRKTKILVLDEATAAVDLETDDLIQSTIRTQFEDCTVLTIAHRLNTIMDYTRVIVLDKGEIQEYGAPSDLLQQRGLFYNMARDAGLV
In the case of B3, the Kd was 1.07 µM in test [3]; 0.11 µM in test [4]; 0.125 µM in test [5]; 0.253 µM in test [6]; 0.107 µM in test [7].

B4: C6.hC1 (other)
chain: MALRGFCSADGSDPLWDWNVTWNTSNPDFTKCFQNTVLVWVPCFYLWACFPFYFLYLSRHDRGYIQMTPLNKTKTALGFLLWIVCWADLFYSFWERSRGIFLAPVFLVSPTLLGITMLLATFLIQLERRKGVQSSGIMLTFWLVALVCALAILRSKIMTALKEDAQVDLFRDITFYVYFSLLLIQLVLSCFSDRSPLFSETIHDPNPCPESSASFLSRITFWWITGLIVRGYRQPLEGSDLWSLNKEDTSEQVVPVLVKNWKKECAKTRKQPVKVVYSSKDPAQPKESSKVDANEEVEALIVKSPQKEWNPSLFKVLYKTFGPYFLMSFFFKAIHDLMMFSGPQILKLLIKFVNDTKAPDWQGYFYTVLLFVTACLQTLVLHQYFHICFVSGMRIKTAVIGAVYRKALVITNSARKSSTVGEIVNLMSVDAQRFMDLATYINMIWSAPLQVILALYLLWLNLGPSVLAGVAVMVLMVPVNAVMAMKTKTYQVAHMKSKDNRIKLMNEILNGIKVLKLYAWELAFKDKVLAIRQEELKVLKKSAYLSAVGTFTWVCTPFLVALCTFAVYVTIDENNILDAQTAFVSLALFNILRFPLNILPMVISSIVQASVSLKRLRIFLSHEELEPDSIERRPVKDGGGTNSITVRNATFTWARSDPPTLNGITFSIPEGALVAVVGQVGCGKSSLLSALLAEMDKVEGHVAIKGSVAYVPQQAWIQNDSLRENILFGCQLEEPYYRSVIQACALLPDLEILPSGDRTEIGEKGVNLSGGQKQRVSLARAVYSNADIYLFDDPLSAVDAHVGKHIFENVIGPKGMLKNKTRILVTHSMSYLPQVDVIIVMSGGKISEMGSYQELLARDGAFAEFLRTYASTEQEQDAEENGVTGVSGPGKEAKQMENGMLVTDSAGKQLQRQLSSSSSYSGDISRHHNSTAELQKAEAKKEETWKLMEADKAQTGQVKLSVYWDYMKAIGLFISFLSIFLFMCNHVSALASNYWLSLWTDDPIVNGTQEHTKVRLSVYGALGISQGIAVFGYSMAVSIGGILASRCLHVDLLHSILRSPMSFFERTPSGNLVNRFSKELDTVDSMIPEVIKMFMGSLFNVIGACIVILLATPIAAIIIPPLGLIYFFVQRFYVASSRQLKRLESVSRSPVYSHFNETLLGVSVIRAFEEQERFIHQSDLKVDENQKAYYPSIVANRWLAVRLECVGNCIVLFAALFAVISRHSLSAGLVGLSVSYSLQVTTYLNWLVRMSSEMETNIVAVERLKEYSETEKEAPWQIQETAPPSSWPQVGRVEFRNYCLRYREDLDFVLRHINVTINGGEKVGIVGRTGAGKSSLTLGLFRINESAEGEIIIDGINIAKIGLHDLRFKITIIPQDPVLFSGSLRMNLDPFSQYSDEEVWTSLELAHLKDFVSALPDKLDHECAEGGENLSVGQRQLVCLARALLRKTKILVLDEATAAVDLETDDLIQSTIRTQFEDCTVLTIAHRLNTIMDYTRVIVLDKGEIQEYGAPSDLLQQRGLFYSMAKDAGLV
For B4, the dissociation constant (Kd) in test [6] is 0.518 µM; in test [7], 0.094 µM.
